To fix the notation:
B1: tail sheath protein gp39 (natural protein, phage Mu, UniProt P79678 1-495, looked up)
chain: MSDISFNAIPSDVRVPLTYIEFDNSNAVSGTPAPRQRVLMFGQSGSKASAAPNVPVRIRSGSQASAAFGQGSMLALMADAFLNANRVAELWCIPQGNGTGNAAVGEISLSGTAGENGSLVTYIAGQRLAVSVAAGATGAALADLLVARIKGQPDLPVTAEVRADSGDDDTHADVVLSAKFTGALSAVDVRWNYYAGETTPYGIITAFKAASGKNGNPDISASIAGMGDLQYKYIVMPYTDEPNLNLLRTELQERWGPVNQADGFAVTVLSGTYGDISTFGVSRNDHLISCMGIAGAPEPSYLYAATLCAVASQALSIDPARPLQTLTLPGRMPPAVGDRFTWSERNALLFDGISTFNVNDGGEMQIERMITMYRTNKYGDSDPSYLNVNTIATLSYLRYSLRTRITQKFPNYKLASDGTRFATGQAVVTPSVIKTELLALFEEWENAGLVEDFDTFKEELYVARNKDDKDRLDVLCGPNLINQFRIFAAQVQFIL
notes: tail sheath protein gp39 of myophage Mu, as it stands in the virion; Hexameric rings, 30 of them stacked in the tail; Model deposited here; source: phage Mu virions grown on E. coli (ATCC 23724), purified (PEG 8000/NaCl precipitation, CsCl gradient)
B2: tube initiator protein gp43 (natural protein, phage Mu, UniProt P08557 1-495, looked up)
chain: MFEDALNAVNAVRDKTGGGRKTTGKGTFRNVPFLVIEEQKQAGGRRLVKREYPLRDTGGVNDLGKKLRSRTFSACILNSNAETARDEAGALMDALDAPGSGELVHPDFGTVDVMVDSWECRTKADELNYYAFTVTVYPSLQDTAPDAETDTSAAVPAQAVAVTGSLGDTLSSVWQTVKDGTAAATAVMEAVTGVIDDISDAVDNLGVTQTVSGLMGSLSAMKGSVTSLINQPAMLASSLMGALSGVSSLCDTRTAFSTWNRLAQRFERRHAATAGRQGTITTSYNSPVAEKNIATLNYVMLAAAQTYRAEAASQALTAALDFSRRMDNAARAPVLDAPSTTTGTASGASSTSATVTQGQLQLTAITPDGGFSQVSFSDSGTATPPVFESVSDIEKTTAMLGAALDSVILTASEQGFSTDSVQLTQLRLLVVADLEKRGLQLAGSESHHLPETLPAMVALYRFTGNSRNWQRLARRNGISNPLFVPGGVSIEVINE
notes: tube initiator protein gp43 (N protein, DNA circularization protein) of myophage Mu, as it stands in the virion; Hexamer; Model deposited here; also called N protein; DNA circularization protein; source: phage Mu virions grown on E. coli (ATCC 23724), purified (PEG 8000/NaCl precipitation, CsCl gradient)

Common to all, as to test: cryo-EM structure; purified phage Mu virions in the extended state (native phage) in phage buffer (10 mM MgCl2, 5 mM NaCl, 10 mM Tris-HCl, pH 7.4); icosahedral, symmetry-mismatch and local reconstruction; 3.2 Å (3-fold capsid), 3.4 Å (portal-adaptor), 3.5 Å (terminator-tail), 3.3 Å (baseplate)
For data set [1], the target named is adaptor protein gp36 (phage Mu).
Data set [2] addresses tape measure protein (TMP) gp42 (phage Mu).
The target in data set [3] is tail terminator protein gp37 (phage Mu).
The target in data set [4] is major capsid protein (MCP) gp34 (phage Mu).
Data set [5] concerns the molecule itself.
Data set [6] deals with B2. To be noted: both partners purified.
Data set [7] has as its target B1. To be noted: both partners purified.

As for adaptor protein gp36 (natural protein), the stoichiometry N (as a rule, the number of molecules, sites or subunits per partner or assembly) in data set [1] is 12.
In data set [2], “tape measure protein (TMP) gp42 (natural protein)” registered a stoichiometry N of 3.
In data set [3], “tail terminator protein gp37 (natural protein)” had a stoichiometry N of 6.
As for “major capsid protein (MCP) gp34 (natural protein)”, the stoichiometry N in data set [4] was found to be 415.
As for B1, the “stoichiometry N” value in data set [5] came to 6.
The same measure, in the same setting: the result for B2 reads 6.

B3: baseplate wedge protein 2 (BW2) gp47 (natural protein, phage Mu, UniProt Q9T1V2 1-360, looked up)
chain: MAYSPPTLSSLIARTEQNIEQRLPGSWPQAREKTLSAIAYAQAGLAAGCHEHISWVGRQIIPSTADEDELLEHCRFWGVRRKQATAASGPLTVTTSAATTIPAGTRWQRADGVVYSLADTIVIDRAGTTEITVTALAAGEAGNTGENTLLTLITPVACVVSDAITVKGFSGGADIESAAELLSRLEYRVQYPPFGGNQFDYVRWAREVSGVTRAWCFPTWKGGGTVGVTFVMDNRSNIFPQPADVERVADYIAGHTDPITGLIVGQPDGVNVTVFAPKAKPVNPRIYISPKTAELKQAITNAINTMFFNEVMPGGALAPSRIIRAVAGVTGLDDFEVRFPTEIQRSENTELLTAGTIEWL
notes: baseplate wedge protein 2 gp47 of myophage Mu, as it stands in the virion; Two conformers (BW2-i, BW2-o) in each of the six wedges; Model deposited here; also called BW2-i; BW2-o; source: phage Mu virions grown on E. coli (ATCC 23724), purified (PEG 8000/NaCl precipitation, CsCl gradient)
In the case of B3, the binding result in data set [6] and in data set [5] was “binds” throughout.

B4: hub protein gp44 (natural protein, phage Mu, UniProt P08558 1-379, looked up)
chain: MSNTVTLRADGRLFTGWTSVSVTRSIESVAGYFELGVNVPPGTDLSGLAPGKKFTLEIGGQIVCTGYIDSRRRQMTADSMKITVAGRDKTADLIDCAAVYSGGQWKNRTLEQIARDLCAPYGVTVRWELSDKESSAAFPGFTLDHSETVYEALVRASRARGVLMTSNAAGELVFSRAASTATDELVLGENLLTLDFEEDFRDRFSEYTVKGYARANGAEGDDIDAKSIVSRKGTATDSDVTRYRPMIIIADSKITAKDAQARALREQRRRLAKSITFEAEIDGWTRKDGQLWMPNLLVTIDASKYAIKTTELLVSKVTLILNDQDGLKTRVSLAPREGFLVPVESDRKNRKGGDSNGGIDALVEDYYRRHPEKTPPWKE
notes: baseplate hub protein gp44 of myophage Mu, as it stands in the virion; Trimer; Model deposited here; source: phage Mu virions grown on E. coli (ATCC 23724), purified (PEG 8000/NaCl precipitation, CsCl gradient)
Take B4: in data set [5], the “stoichiometry N” value came to 3.

B5: tail tube protein gp40 (natural protein, phage Mu, UniProt P79679 1-118, looked up)
chain: MAGNQRQGVAFIRVNGMELESMEGASFTPSGITREEVTGSRVYGWKGKPRAAKVECKIPGGGPIGLDEIIDWENITVEFQADTGETWMLANAWQADEPKNDGGEISLVLMAKQSKRIA
notes: tail tube protein gp40 of myophage Mu, as it stands in the virion; Hexameric rings, 30 of them stacked in the tail; Model deposited here; source: phage Mu virions grown on E. coli (ATCC 23724), purified (PEG 8000/NaCl precipitation, CsCl gradient)
On to B5, for which, in data set [7], the binding result is “binds”. Besides, the “stoichiometry N” value in data set [5] was determined as 6.

B6: portal protein gp29 (natural protein, phage Mu, UniProt Q9T1W5 1-512, looked up)
chain: MGRILDISGQPFDFDDEMQSRSDELAMVMKRTQEHPSSGVTPNRAAQMLRDAERGDLTAQADLAFDMEEKDTHLFSELSKRRLAIQALEWRIAPARDASAQEKKDADMLNEYLHDAAWFEDALFDAGDAILKGYSMQEIEWGWLGKMRVPVALHHRDPALFCANPDNLNELRLRDASYHGLELQPFGWFMHRAKSRTGYVGTNGLVRTLIWPFIFKNYSVRDFAEFLEIYGLPMRVGKYPTGSTNREKATLMQAVMDIGRRAGGIIPMGMTLDFQSAADGQSDPFMAMIGWAEKAISKAILGGTLTTEAGDKGARSLGEVHDEVRREIRNADVGQLARSINRDLIYPLLALNSDSTIDINRLPGIVFDTSEAGDITALSDAIPKLAAG
notes: portal protein gp29 of myophage Mu, as it stands in the virion; Dodecamer; Model deposited here; source: phage Mu virions grown on E. coli (ATCC 23724), purified (PEG 8000/NaCl precipitation, CsCl gradient); copies: 12
Take B6: in data set [5], the “stoichiometry N” value worked out at 12.

B7: G(+) type fiber protein gp49 (natural protein, phage Mu, UniProt Q9T1V0 1-504, looked up)
chain: MFYIDNDSGVTVMPPVSAQRSAIVRWFSEGDGNNVITWPGMDWFNIVQAELLNTLEEAGIQPDKTKLNQLALSIKAIMSNNALLIKNNLSEIKTAGASAQRTARENLDIYDASLNKKGLVQLTSATDSPSETLAATAKAVKIAMDNANARLAKDRNGADIPNKPLFIQNLGLQETVNRARNAVQKNGDTLSGGLTFENDSILAWIRNTDWAKIGFKNDADSDTDSYMWFETGDNGNEYFKWRSKQSTTTKDLMNLKWDALSVLVNAIVNGEVISKSANGLRIAYGNYGFFIRNDGSNTYFMLTNSGDNMGTYNGLRPLWINNATGAVSMGRGLNVSGDTLSDRFAINSSNGMWIQMRDNNAIFGKNIVNTDSAQALLRQNHADRKFMIGGLGNKQFGIYMINNSRTANGTDGQAYMDNNGNWLCGAQVIPGNYANFDSRYVRDVRLGTQSLTGGLSRDYKAPSGHVITGFHTNGDWEMQGGDDKVYIRPVQKNINGTWYNVASA
notes: G(+) type tail fiber protein gp49 of myophage Mu, as it stands in the virion; only the N-terminus was modelled; Trimer; six fibers in the baseplate; Model deposited here; source: phage Mu virions grown on E. coli (ATCC 23724), purified (PEG 8000/NaCl precipitation, CsCl gradient)
Consider B7, for which the “stoichiometry N” value in data set [5] stood at 3.

The values are drawn from article PMC11915804, “In situ structures of the contractile nanomachine myophage Mu in both its extended and contracted states” (Journal of Virology, 2025).
